According to publication PMC12366701:

Legend:
[1] = biological target: porcine double-stabilized microtubules (dsMTs) (porcine (endogenous in pig brain)) (UniProt P02550); assay: TIRF microscopy binding assay; porcine dsMTs attached to coverslips via an anti-β-tubulin antibody; 100 nM Janelia Fluor 549-labelled TTLL11 variants in 40 mM tris-HCl pH 7.0, 1 mM TCEP, 1 mM MgCl2, 5% glycerol, casein, 10 μM paclitaxel; 22°C; intensity per μm of MT normalized to the control
[2] = biological target: AspN-treated porcine dsMTs (β-tubulin C-tail removed) (porcine (endogenous in pig brain)) (UniProt P02550); assay: as above

Chain of UniProt P02550 (P02550 whole entry, chain 1 of 2): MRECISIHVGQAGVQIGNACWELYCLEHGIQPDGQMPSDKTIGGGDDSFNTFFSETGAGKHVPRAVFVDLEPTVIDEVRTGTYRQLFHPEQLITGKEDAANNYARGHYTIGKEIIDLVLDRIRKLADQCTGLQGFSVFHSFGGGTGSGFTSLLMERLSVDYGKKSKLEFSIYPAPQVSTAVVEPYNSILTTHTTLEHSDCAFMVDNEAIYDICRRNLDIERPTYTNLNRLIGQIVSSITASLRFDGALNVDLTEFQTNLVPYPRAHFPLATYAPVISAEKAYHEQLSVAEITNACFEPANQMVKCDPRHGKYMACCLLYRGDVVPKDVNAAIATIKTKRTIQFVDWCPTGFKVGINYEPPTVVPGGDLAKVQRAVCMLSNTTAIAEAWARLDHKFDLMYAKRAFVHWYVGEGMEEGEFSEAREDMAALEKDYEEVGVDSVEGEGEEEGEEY
Chain of UniProt P02550 (P02554 whole entry, chain 2 of 2, further chain): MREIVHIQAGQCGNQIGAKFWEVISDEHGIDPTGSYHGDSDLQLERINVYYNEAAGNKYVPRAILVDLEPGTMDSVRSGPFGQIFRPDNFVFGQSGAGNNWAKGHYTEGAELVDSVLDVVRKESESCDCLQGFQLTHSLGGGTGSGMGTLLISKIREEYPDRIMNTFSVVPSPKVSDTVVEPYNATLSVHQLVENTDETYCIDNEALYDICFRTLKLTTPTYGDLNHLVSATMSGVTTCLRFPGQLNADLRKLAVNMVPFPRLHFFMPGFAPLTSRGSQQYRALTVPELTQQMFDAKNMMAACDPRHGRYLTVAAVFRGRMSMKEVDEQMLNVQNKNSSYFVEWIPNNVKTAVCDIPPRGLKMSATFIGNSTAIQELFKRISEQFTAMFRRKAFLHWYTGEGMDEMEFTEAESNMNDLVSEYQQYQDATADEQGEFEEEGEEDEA

Which percent reduction of the fluorescence signal intensity [1] does the source give for “hTTLL11 I594W mutant (from UniProt Q8NHH1 1-710) (enzyme)” here?
The percent reduction of the fluorescence signal intensity was 80%.

“hTTLL11 R601E mutant (from UniProt Q8NHH1 1-710) (enzyme)” was tested. Which percent reduction of the fluorescence signal intensity [1] did it give?
The percent reduction of the fluorescence signal intensity was 60%.

B1: human TTLL11 (hTTLL11), full-length (enzyme)
chain: MRRGSSESELAARWEAEAVAAAKAAAKAEAEATAETVAEQVRVDAGAAGEPECKAGEEQPKVLAPAPAQPSAAEEGNTQVLQRPPPTLPPSKPKPVQGLCPHGKPRDKGRSCKRSSGHGSGENGSQRPVTVDSSKARTSLDALKISIRQLKWKEFPFGRRLPCDIYWHGVSFHDNDIFSGQVNKFPGMTEMVRKITLSRAVRTMQNLFPEEYNFYPRSWILPDEFQLFVAQVQMVKDDDPSWKPTFIVKPDGGCQGDGIYLIKDPSDIRLAGTLQSRPAVVQEYICKPLLIDKLKFDIRLYVLLKSLDPLEIYIAKDGLSRFCTEPYQEPTPKNLHRIFMHLTNYSLNIHSGNFIHSDSASTGSKRTFSSILCRLSSKGVDIKKVWSDIISVVIKTVIALTPELKVFYQSDIPTGRPGPTCFQILGFDILLMKNLKPILLEVNANPSMRIEHEHELSPGVFENVPSLVDEEVKVAVIRDTLRLMDPLKKKRENQSQQLEKPFAGKEDALDGELTSAPDCNANPEAHLPSICLKQVFPKYAKQFNYLRLVDRMANLFIRFLGIKGTMKLGPTGFRTFIRSCKLSSSSLSMAAVDILYIDITRRWNSMTLDQRDSGMCLQAFVEAFFFLAQRKFKMLPLHEQVASLIDLCEYHLSLLDEKRLVCGRGVPSGGRPPHRGPPQEPSPSAQPAGDNPPPRTSCANKLSHPRHTLS
modifications: Janelia Fluor 549-HALO probe on the HALO tag (TIRF assay)
With B1 as the molecule, how does the percent lower fluorescence signal than on intact MTs [2] read?
Its percent lower fluorescence signal than on intact MTs is 50%.
